B2: HA-tagged full length NS5A (other)
chain: SGSWLRDVWDWVCTILTDFKNWLTSKLFPKLPGLPFISCQKGYKGVWAGTGIMTTRCPCGANISGNVRLGSMRITGPKTCMNTWQGTFPINCYTEGQCAPKPPTNYKTAIWRVAASEYAEVTQHGSYSYVTGLTTDNLKIPCQLPSPEFFSWVDGVQIHRFAPTPKPFFRDEVSFCVGLNSYAVGSQLPCEPEPDADVLRSMLTDPPHITAETAARRLARGSPPSEASSSVSQLSAPSLRATCTTHSNTYDVDMVDANLLMEGGVAQTEPESRVPVLDFLEPMAEEESDLEPSIPSECMLPRSGFPRALPAWARPDYNPPLVESWRRPDYQPPTVAGCALPPPKKAPTPPPRRRRTVGLSESTISEALQQLAIKTFGQPPSSGDAGSSTGAGAAESGGPTSPGEPAPSETGSASSMPPLEGEPGDPDLESDQVELQPPPQGGGVAPGSGSGSWSTCSEEDDTTVCC
notes: also called HA-tagged NS5A; not shown: HA tag from vector pRK-7 HA

Legend:
[1] = molecular target: T1, HA-tagged CD2AP (pRK-HA-CD2AP), human, full length (human, UniProt Q9Y5K6 1-639); assay: co-IP with anti-flag antibody from HEK 293T cells over-expressing both, blot with anti-HA
T1 construct: Over-expressed in HEK 293T cells and tested in cell lysate by co-IP; also called CD2 associated protein; not shown: HA tag from vector pRK-7 HA

[2] = molecular target: T2, flag-tagged CD2AP 1-639 aa (full length) (human, UniProt Q9Y5K6 1-639); assay: co-IP with anti-flag antibody, HEK 293T cells, blot with anti-HA
T2 construct: also called Full length CD2AP; not shown: Flag tag

[3] = molecular target: T3, flag-tagged truncated CD2AP 60-639 aa (human, UniProt Q9Y5K6 60-639); assay: as above
T3 construct: No first SH3 domain, all other CD2AP domains kept; also called CD2AP lacking the first SH3 domain; not shown: Flag tag
T3 sequence (Q9Y5K6 60-639): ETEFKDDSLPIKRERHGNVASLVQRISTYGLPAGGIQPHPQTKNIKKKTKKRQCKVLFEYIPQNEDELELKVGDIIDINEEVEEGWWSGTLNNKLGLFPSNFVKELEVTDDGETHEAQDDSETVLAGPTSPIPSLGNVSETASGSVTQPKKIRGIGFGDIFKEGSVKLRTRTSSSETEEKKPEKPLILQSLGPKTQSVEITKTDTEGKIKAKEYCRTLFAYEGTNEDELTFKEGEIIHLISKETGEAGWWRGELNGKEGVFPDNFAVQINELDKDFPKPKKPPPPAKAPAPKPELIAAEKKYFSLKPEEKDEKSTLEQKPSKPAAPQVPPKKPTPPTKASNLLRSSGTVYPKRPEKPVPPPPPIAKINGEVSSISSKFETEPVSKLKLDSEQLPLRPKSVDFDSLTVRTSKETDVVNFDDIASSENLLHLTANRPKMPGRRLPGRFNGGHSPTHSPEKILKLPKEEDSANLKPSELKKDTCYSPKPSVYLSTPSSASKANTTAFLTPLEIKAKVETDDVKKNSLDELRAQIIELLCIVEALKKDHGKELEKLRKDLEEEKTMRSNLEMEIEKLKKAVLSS

[4] = molecular target: T4, CD2AP, endogenous, in Huh7.5.1 cells (human, UniProt Q9Y5K6 1-639); assay: endogenous co-IP, both directions, Huh7.5.1 cells infected with HCV JFH1
T4 construct: Endogenous protein of human hepatoma Huh7.5.1 cells, in cell lysate

[5] = molecular target: B2; assay: co-IP with anti-flag antibody, HEK 293T cells, blot with anti-HA

B1: Flag-tagged NS5A derived from HCV genotype 2a strain JFH1 (pRK-Flag-NS5A), full length (other)
chain: SGSWLRDVWDWVCTILTDFKNWLTSKLFPKLPGLPFISCQKGYKGVWAGTGIMTTRCPCGANISGNVRLGSMRITGPKTCMNTWQGTFPINCYTEGQCAPKPPTNYKTAIWRVAASEYAEVTQHGSYSYVTGLTTDNLKIPCQLPSPEFFSWVDGVQIHRFAPTPKPFFRDEVSFCVGLNSYAVGSQLPCEPEPDADVLRSMLTDPPHITAETAARRLARGSPPSEASSSVSQLSAPSLRATCTTHSNTYDVDMVDANLLMEGGVAQTEPESRVPVLDFLEPMAEEESDLEPSIPSECMLPRSGFPRALPAWARPDYNPPLVESWRRPDYQPPTVAGCALPPPKKAPTPPPRRRRTVGLSESTISEALQQLAIKTFGQPPSSGDAGSSTGAGAAESGGPTSPGEPAPSETGSASSMPPLEGEPGDPDLESDQVELQPPPQGGGVAPGSGSGSWSTCSEEDDTTVCC
notes: not shown: Flag tag from vector pRK-7 Flag
**Q.** Does B1 bind [1]?
**A.** binds

**Q.** What does the source list for B2?
**A.** binding result [2]: binds; binding result [3]: binds

B3: NS5A of HCV JFH1 in infected Huh7.5.1 cells (other)
chain: SGSWLRDVWDWVCTILTDFKNWLTSKLFPKLPGLPFISCQKGYKGVWAGTGIMTTRCPCGANISGNVRLGSMRITGPKTCMNTWQGTFPINCYTEGQCAPKPPTNYKTAIWRVAASEYAEVTQHGSYSYVTGLTTDNLKIPCQLPSPEFFSWVDGVQIHRFAPTPKPFFRDEVSFCVGLNSYAVGSQLPCEPEPDADVLRSMLTDPPHITAETAARRLARGSPPSEASSSVSQLSAPSLRATCTTHSNTYDVDMVDANLLMEGGVAQTEPESRVPVLDFLEPMAEEESDLEPSIPSECMLPRSGFPRALPAWARPDYNPPLVESWRRPDYQPPTVAGCALPPPKKAPTPPPRRRRTVGLSESTISEALQQLAIKTFGQPPSSGDAGSSTGAGAAESGGPTSPGEPAPSETGSASSMPPLEGEPGDPDLESDQVELQPPPQGGGVAPGSGSGSWSTCSEEDDTTVCC
notes: also called endogenous NS5A
**Q.** Does B3 bind [4]?
**A.** binds

B4: flag-tagged truncated CD2AP 1-107 aa (other)
chain: MVDYIVEYDYDAVHDDELTIRVGEIIRNVKKLQEEGWLEGELNGRRGMFPDNFVKEIKRETEFKDDSLPIKRERHGNVASLVQRISTYGLPAGGIQPHPQTKNIKKK
notes: Contains the first SH3 domain; not shown: Flag tag
**Q.** Does B4 bind [5]?
**A.** binds

B5: flag-tagged truncated CD2AP 1-268 aa (other)
chain: MVDYIVEYDYDAVHDDELTIRVGEIIRNVKKLQEEGWLEGELNGRRGMFPDNFVKEIKRETEFKDDSLPIKRERHGNVASLVQRISTYGLPAGGIQPHPQTKNIKKKTKKRQCKVLFEYIPQNEDELELKVGDIIDINEEVEEGWWSGTLNNKLGLFPSNFVKELEVTDDGETHEAQDDSETVLAGPTSPIPSLGNVSETASGSVTQPKKIRGIGFGDIFKEGSVKLRTRTSSSETEEKKPEKPLILQSLGPKTQSVEITKTDTEGKI
notes: not shown: Flag tag
**Q.** Does B5 bind [5]?
**A.** binds

B6: flag-tagged truncated CD2AP 1-330 aa (other)
chain: MVDYIVEYDYDAVHDDELTIRVGEIIRNVKKLQEEGWLEGELNGRRGMFPDNFVKEIKRETEFKDDSLPIKRERHGNVASLVQRISTYGLPAGGIQPHPQTKNIKKKTKKRQCKVLFEYIPQNEDELELKVGDIIDINEEVEEGWWSGTLNNKLGLFPSNFVKELEVTDDGETHEAQDDSETVLAGPTSPIPSLGNVSETASGSVTQPKKIRGIGFGDIFKEGSVKLRTRTSSSETEEKKPEKPLILQSLGPKTQSVEITKTDTEGKIKAKEYCRTLFAYEGTNEDELTFKEGEIIHLISKETGEAGWWRGELNGKEGVFPDNFAVQINE
notes: Contains all three SH3 domains; not shown: Flag tag
**Q.** Does B6 bind [5]?
**A.** binds

Source: patent US20190353642A1 (WUHAN INSTITUTE OF VIROLOGY CHINESE ACADEMY OF SCIENCES, published 2019)
